Assay results published in publication PMC7375048, “The impact of acute rosiglitazone on insulin pharmacokinetics at the blood‐brain barrier” (Endocrinology, Diabetes & Metabolism, 2020).
Structures can show the parent of a compound that is named as a salt.

Legend:
[1] = system: murine BBB; experiment: Transcardiac brain perfusion of 125I-insulin, multiple-time regression analysis; conditions: mouse, in vivo
Description: (§1) This experimental set‐up was based on previous studies investigating the acute effect of rosiglitazone. ^35 , ^36
The perfusate was freshly prepared for each study day. Perfusate was collected throughout the study to determine the average cpm/µL of perfusate. After perfusion, the olfactory bulb was collected and the brain dissected into regions (frontal/parietal/occipital cortex, striatum, hypothalamus, hippocampus, thalamus, cerebellum, midbrain and pons/medulla) according to Glowinski and Iversen; ^38 each region was weighed separately. The amount of radioactivity was determined by a gamma counter (Wizard2, Perkin Elmer). Brain/perfusate ratios are calculated by dividing the cpm in a gram of brain by the cpm in a µL of perfusate to yield units of µL/g.
Exposure time is calculated by the formula:(1) Exposure time=∫0tCp(t)dt/Cp(t) where Cp(t) is the level of radioactivity (cpm) in serum at time (t). Exposure time corrects for the clearance of peptide from the blood. […] The slope of the linearity measures K i and is reported with its standard error term. The y‐intercept of the linearity measures V i, the initial volume of distribution in brain at t = 0. ^37 Blasberg, Fenstermacher and Patlak originally described V i as the volume of test substance that rapidly and reversibly exchanges with the plasma (Blasberg 1983). For cardiac perfusion studies, formula 2 is employed, using the brain/perfusate ratios and the clock time is used in place of exposure time.

[2] = system: brain capillary sequestration; type: in vivo, mouse
Procedure: Two and a half minutes later, blood was collected from the carotid, the mice decapitated and the whole brain removed. […] Homogenates were then centrifuged at 3500 g for 20 minutes at 4°C with a swinging bucket rotor (Beckman Coulter). The brain capillary fraction contained in the pellet and the supernatant containing the brain parenchyma were carefully separated. […] Fractions were expressed as percentages of total brain.

[3] = mouse, in vivo, iv
Procedure: (§2) Mice were decapitated, and the brain was collected immediately, dissected into the hypothalamus, olfactory bulb and remaining whole brain and weighed. Blood was centrifuged at 5400g for 10 min and serum collected. Radioactivity in 50 µL of serum and entire brain samples were counted in a gamma counter (Wizard2; Perkin Elmer).

[4] = system: murine BBB; experiment: Blood-to-brain 125I-insulin transport, multiple-time regression analysis; type: in vivo, mouse
Procedure: as §1, §2
Exposure time is calculated by the formula:(1) Exposure time=∫0tCp(t)dt/Cp(t) where Cp(t) is the level of radioactivity (cpm) in serum at time (t). Exposure time corrects for the clearance of peptide from the blood. […] The slope of the linearity measures K i and is reported with its standard error term. […] For cardiac perfusion studies, formula 2 is employed, using the brain/perfusate ratios and the clock time is used in place of exposure time.

[5] = system: murine BBB; conditions: mouse, in vivo, iv; cited from earlier work
Description: (§3) However, we were interested in the direct effect that would be mediated at the luminal surface of the brain endothelial cell, rather than an effect within the CNS. Indeed, PPARγ activation is known to have a direct effect on cerebral vascular expression of proteins, including various adhesion molecules and metalloproteinases. ^61 Therefore, we know brain en ...

[6] = system: P‐glycoprotein; conditions: cited from earlier work
Description: as §3

Compound | BBB transport rate K i following cardiac perfusion, hypothalamus [1] [µL/g‐min] | BBB transport rate K i following cardiac perfusion, olfactory bulb [1] [µL/g‐min] | change of hypothalamic BBB transport rate in the absence of serum [1] | vascular binding V i following cardiac perfusion, hypothalamus [1] [µL/g] | vascular binding V i following cardiac perfusion, olfactory bulb [1] [µL/g] | fraction of radioactivity in brain parenchyma vs capillary fraction ([2]; mouse, in vivo, iv) | average half‐time clearance from blood [3] [min] | BBB transport rate K i, hypothalamus ([4]; mouse, in vivo) [µL/g‐min] | average rate of transport K i, hypothalamus ([4]; mouse, in vivo) [µL/g‐min] | average rate of transport K i, olfactory bulb ([4]; mouse, in vivo) [µL/g‐min] | vascular binding V i, hypothalamus ([4]; mouse, in vivo) [µL/g] | vascular binding V i, olfactory bulb ([4]; mouse, in vivo) [µL/g] | BBB transport rate K i, whole brain ([4]; mouse, in vivo, iv) [µL/g‐min] | penetration of the murine BBB [5] | time of brain uptake [5] [min] | P‐glycoprotein interaction [6] | effect on capillary/parenchyma distribution of 125I-insulin ([2]; 10 µg RSG pretreatment, data not shown) | effect on 125I-insulin vascular binding (V i), whole brain ([4]; 1 µg S961 (P = .0006), 10 µg RSG pretreatment with S961 (P = .044), two-way ANOVA, Sidak) | effect on 125I-insulin vascular binding (V i), hypothalamus ([4]; 1 µg S961 (P = .002), 10 µg RSG pretreatment with S961 (P = .025), two-way ANOVA, Sidak) | effect on rate of 125I-insulin BBB transport ([4]; whole brain, olfactory bulb, hypothalamus, 10 µg RSG pretreatment, 1 µg S961 co-injected)
125I‐insulin: human insulin (Sigma‐Aldrich) radioactively labelled with 125I by the chloramine‐T method | 6.11 ± 1.92 | 3.34 ± 1.31 | nearly tripled | -4.5 ± 5.7 | 13.5 ± 4.4 | majority | 1.54 | 1.39 ± 0.28 | 1.75 | 2.25 | 11.6 ± 2.0 | 10.4 ± 4.8 | 1.26 ± 0.17 |  |  |  |  |  |  | 
CN(CCOc1ccc(CC2SC(=O)NC2=O)cc1)c1ccccn1 (centres unmarked) [RSG, rosiglitazone maleate] |  |  |  |  |  |  |  |  |  |  |  |  |  | 0.045 % of an iv injected dose | ≤ 1 | substrate of p‐glycoprotein | no overt differences | prevented this decrease in binding | prevented this decrease in binding | did not significantly alter
